Assay results: the supplement of paper PMC11780869

Tested on: Bacillus subtilis
Test: cleaved RNA product abundance (RNA/gDNA barcode ratio) relative to median wild-type variant (ratio to wild type); higher = more accumulation of the downstream cleavage product
Procedure, shortened: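 Cleaved product abundance was measured with barcoded reporter mRNAs (truncated aprE or tetM) carrying mutagenized RNase Y cleavage-site windows in the B. subtilis chromosome. Cultures in LB at 37°C grew from OD600 0.0003 to 0.3. Gel-selected cleaved RNA was reverse transcribed and barcode-sequenced with genomic DNA barcodes, and the RNA:gDNA barcode ratio per construct was scaled to the median construct bearing the unmutated site.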

[1] = experiment (reporter, strain, medium): exp 4a: truncated aprE reporter, strain BJT201 with 2% xylose (RNase J1 expressed), cleavage site: cggR-gapA (positions -7 to +36 mutated)
[2] = experiment (reporter, strain, medium): exp 8a: truncated aprE reporter, strain BJT201 with 2% xylose (RNase J1 expressed), cleavage site: glnRA (positions -5 to +31 mutated)
[3] = experiment (reporter, strain, medium): exp 2b: truncated aprE reporter, strain BJT200, cleavage site: cggR-gapA (positions -7 to +36 mutated)

Row | Sequence | cleaved RNA product abundance [1] | cleaved RNA product abundance [2] | cleaved RNA product abundance [3]
1 | ACAGACGAAGGAGCCGCAAAGAAGTTATTAAGGGATGAATAATCCCTCTATATAAATACCTCTCACTTATTTAAA | 0.407 | – | –
2 | CGACATGTCCCGCTTCTTTCATTAATCCGTTAGCAACTGTTTTGCAATATATATTTACCTTTTAAGAGGAGGAAT | – | 0.379 | –
3 | ACAGACGAAGGAGCCGCAAAGAAGTTAATAAGGGATGAATAATCCCTTAATATAAATATCTCTCACTTATTTAAA | 0.519 | – | 0.572
4 | CGACATGTCCCGCTTCTTTCATTAATCCGTTAGCAATTATTTTGCTATATACATTTACCTTTTAAGAGGAGGAAT | – | 1.14 | –
5 | ACAGACGAAGGAGCCGCAAAGACGCTATTAAGGGATGAATAATCCCTCAATATAAATATCTCTCACTTATTTAAA | – | – | 0.548
6 | ACAGACGAAGGAGCCGCAAGGAAGTTATTAATGGATGAATAATCCCTCAATATAAATATCTCTCACTTATTTAAA | 0.162 | – | 0.144
7 | ACAGACGAAGGAGCCGCAAAGAAGTTATTAAGGGATGAATAATCCCACAAGATAAATATCTCTCACTTATTTAAA | 0.187 | – | 0.158
8 | ACAGACGAAGGAGCCGCAAAGAATTTATTATGGGATGAATAATCCCTCAATATAAATATCTCTCACTTATTTAAA | 0.292 | – | 0.266
9 | CGACATGTCCCGCTTCTTTCATTAATCCGTTAGCAACTGTTTTGCTATATAAATCTACCTTTTAAGAGGAGGAAT | – | 1.49 | –
10 | ACAGACGAAGGAGCCGCAAAGAAGTTATTAATGGATGAACAATCCCTCAATATAAATATCTCTCACTTATTTAAA | 0.143 | – | –
11 | CGACATGTCCCGCTTCTTTCATTAATCCGTTAGCAACCGTTATGCTATATACATTTACCTTTTAAGAGGAGGAAT | – | 0.316 | –
12 | CGACATGTCCCGCTTCTTTCATTAATCCTTTAGCAACGGTTTTGCTATATACATTTACCTTTTAAGAGGAGGAAT | – | 0.7 | –
13 | ACAGACGAAGGAGCCGCAAAGAAGTTAATAATGGATGAATAATCCCTCAATATAAATATCTCTCACTTATTTAAA | 0.137 | – | 0.104
14 | ACAGACGAAGGAGCCGCAAAGAAGTTATTAAGGGATGAATAATCACTCAATATAAATAGCTCTCACTTATTTAAA | 0.101 | – | –
15 | ACAGACGAAGGAGCCGCTAAGAAGTTATTAAGGGATGAATAATCCCACAATATAAATATCTCTCACTTATTTAAA | 0.252 | – | –
16 | ACAGACGAAGGAGCCGCAAAGAAGTTATTAAGGGATGAATAATCCCTCAATTTATATATCTCTCACTTATTTAAA | 0.2 | – | –
17 | ACAGACGAAGGAGCCGCAAAGAAGTTATTAAGAGATGAATAATCCCTCAACATAAATATCTCTCACTTATTTAAA | 0.132 | – | 0.111
18 | ACAGACGAAGGAGCCGCATAGAAGTTATCAAGGGATGAATAATCCCTCAATATAAATATCTCTCACTTATTTAAA | 0.549 | – | –
19 | ACAGACGAAGGAGCCGCAAAGAAGTAATTAAGGGATGAATAATACCTCAATATAAATATCTCTCACTTATTTAAA | 0.141 | – | 0.115
20 | ACAGACGAAGGAGCCGCAAATAAGTTATTAAGGGATGAATAATCCCTCTATATAAATATCTCTCACTTATTTAAA | 0.439 | – | 0.34
21 | CGACATGTCCCGCTTCTTTCATTAATCCTTTCGCAACTGTTTTGCTATATACATTTACCTTTTAAGAGGAGGAAT | – | 0.299 | –

Row | Sequence | cleaved RNA product abundance [1] | cleaved RNA product abundance [2] | cleaved RNA product abundance [3]
22 | ACAGACGAAGGAGCCGCAAAGAAGTAATTAAGGGTTGAATAATCCCTCAATATAAATATCTCTCACTTATTTAAA | 0.162 | – | 0.0812
23 | ACAGACGAAGGAGCCGCAAAGAAGTTATTATGGGATGAATAATCCCTCAAAATAAATATCTCTCACTTATTTAAA | 0.277 | – | –
24 | CGACATGTCCCGCTTCTTTCATTAATCCGTTAGCAACAGTTTTGCTATATACATTTACGTTTTAAGAGGAGGAAT | – | 2.01 | –
25 | ACAGACGAAGGAGCCGCAAAGAAGTTATTGAGGGATGAATTATCCCTCAATATAAATATCTCTCACTTATTTAAA | 0.0896 | – | –
26 | ACAGACGAAGGAGCCGCAAAGAAGTTATTAAGGGATCAATAATCCCTCAATATAGATATCTCTCACTTATTTAAA | – | – | 0.534
27 | ACAGACGAAGGAGCCGCAAAGAAGTTATATAGGGATGAATAATCCCTCAATATAAATATCTCTCACTTATTTAAA | 0.664 | – | –
28 | ACAGACGAAGGAGCCGCAAAGAAGTTATTAAGGGATCAATAATCGCTCAATATAAATATCTCTCACTTATTTAAA | 0.0655 | – | –
29 | ACAGACGAAGGAGCCGCAAATAAGTTATTAAGGGATGAATACTCCCTCAATATAAATATCTCTCACTTATTTAAA | 0.538 | – | 0.682
30 | ACAGACGAAGGAGCCGCAAAGAAGTTATTAAGGGATAAATAATCGCTCAATATAAATATCTCTCACTTATTTAAA | 0.0974 | – | –
31 | CGACATGTCCCGCTTCTTTCATTAATCCGTTAGCATCTGATTTGCTATATACATTTACCTTTTAAGAGGAGGAAT | – | 1.34 | –
32 | CGACATGTCCCGCTTCTTTCATTAATCCGTTAGCAACTGTTTTACTATATACATTTATCTTTTAAGAGGAGGAAT | – | 0.588 | –
33 | ACAGACGAAGGAGCCGCAAAGAAGTTATTAAGGGATGAACAATCGCTCAATATAAATATCTCTCACTTATTTAAA | 0.104 | – | –
34 | ACAGACGAAGGAGCCGCAAAGAAGCTATTAAGGGAGGAATAATCCCTCAATATAAATATCTCTCACTTATTTAAA | 0.24 | – | 0.287
35 | ACAGACGAAGGAGCCGCAAAAAAGTTATTAAGGGATGAATAATCCCACAATATAAATATCTCTCACTTATTTAAA | 0.254 | – | 0.237
36 | ACAGACGAAGGAGCCGCAAAGAAGTTATTACGGGATGAATAATCACTCAATATAAATATCTCTCACTTATTTAAA | – | – | 0.108
37 | CGACATGTCCCGCTTCTTTCATTAATTCGTTAGCAACTGTTTTGTTATATACATTTACCTTTTAAGAGGAGGAAT | – | 0.602 | –
38 | ACAGACGAAGGAGCCGCAAAGAATTTATTAAGGGATGAATAATCCCTCAATAGAAATATCTCTCACTTATTTAAA | 0.0925 | – | –
39 | ACAGACGAAGGAGCCGCAAAGAAGTTAATAAGGGATGAAAAATCCCTCAATATAAATATCTCTCACTTATTTAAA | 0.293 | – | –
40 | ACAGACGAAGGAGCCGCAAAGAAGTTGTTAAGGTATGAATAATCCCTCAATATAAATATCTCTCACTTATTTAAA | 0.12 | – | –
41 | ACAGACGAAGGAGCCGCAAAGAAGTTATTATGGGATGAATAATCCCTAAATATAAATATCTCTCACTTATTTAAA | 0.514 | – | –
42 | ACAGACGAAGGAGCCGCAAAGAAGATATTAAGGGATGAATAATCCCTTAATATAAATATCTCTCACTTATTTAAA | 0.192 | – | –

Row | Sequence | cleaved RNA product abundance [1] | cleaved RNA product abundance [2] | cleaved RNA product abundance [3]
43 | CGACATGTCCCGCTTCTTTCATTAATCCGTTAGCAACTGTTTTGCTATATACATTTACCGTTTAAGAGGAGGAAT | – | 0.948 | –
44 | ACAGACGAAGGAGCCGCAAAGAAGTTATTATGTGATGAATAATCCCTCAATATAAATATCTCTCACTTATTTAAA | 0.131 | – | –
45 | ACAGACGAAGGAGCCGCAAAGAAGTTATTAAGGGATCTATAATCCCTCAATATAAATATCTCTCACTTATTTAAA | 0.87 | – | –
46 | ACAGACGAAGGAGCCGCAAAGAAGTTATTAAGTGATGAATAATCCTTCAATATAAATATCTCTCACTTATTTAAA | 0.145 | – | 0.112
47 | CGACATGTCCCGCTTCTTTCATTACTCCGTTAGCAACTGTTTTGCTATATACATTTACCTTTTAAGAGGAGGAAT | – | 1.1 | –
48 | CGACATGTCCCGCTTCTTTCATTATTACGTTACCAACTATTTTGCTATATACATTTATCTTTTAAGAGGAGGAAT | – | 0.242 | –
49 | ACAGACGAAGGAGCCGCAAAGAAGGTATTAAGGGATAAATAATCCCTCAATATAAATATCTCTCACTTATTTAAA | 1.29 | – | –
50 | ACAGACGAAGGAGCCGCAAAGAAGTTATTAAGGGATGAATAATTCCTCAATATAAATTTCTCTCACTTATTTAAA | 0.625 | – | –
51 | ACAGACGAAGGAGCCGCAAAGATGTTATTAAGGGATGAATAATCCCTAAATATAAATATCTCTCACTTATTTAAA | 1.11 | – | –
52 | ACAGACGAAGGAGCCGCAAAGAAGTTATTAAGGGATAAATAAGCCCTCAATATAAATATCTCTCACTTATTTAAA | 0.821 | – | –
53 | ACAGACGAAGGAGCCGCAAAGAAGTTATTAAGGGATGAATAATCCATCAATAAAAATATCTCTCACTTATTTAAA | 0.107 | – | 0.11
54 | CGACATGTCCCGCTTCTTTCATTAATCCGTTAGCAAGTGTTTTGCTATAAACATTTACCTTTTAAGAGGAGGAAT | – | 0.659 | –
55 | ACAGACGAAGGAGCCGCAAAGAAGTTATTATGGGATGAATAAACCCTCAATATAAATATCTCTCACTTATTTAAA | 0.21 | – | –
56 | ACAGACGAAGGAGCCGCAAAGAAGTTATTAAGAGATGAATAATCCCTCAATTTAAATATCTCTCACTTATTTAAA | 0.0573 | – | 0.0971
57 | ACAGACGAAGGAGCCGCAAAGAAGTTATTAAGGTATGACTAATCCCTCAATATAAATATCTCTCACTTATTTAAA | 0.107 | – | –
58 | ACAGACGAAGGAGCCGCAAAGAAGTTATTAAGGAATGAATAATCCCTCAATATAAACATCTCTCACTTATTTAAA | 0.121 | – | –
59 | ACAGACGAAGGAGCCGCAAATAAGTTAATAAGGGATGAATAATCCCCCAATATAAATATCTCTCACTTATTTAAA | – | – | 0.208
60 | ACAGACGAAGGAGCCGCAAAGAATTTATTAAGGGATGAATAATCCCTCAATATAAATATTTCTCACTTATTTAAA | 0.259 | – | –
61 | ACAGACGAAGGAGCCGCAAAGAAATTATTAAGGGATGAATAATCCCACAATATAAATATCTCTCACTTATTTAAA | 0.298 | – | 0.195
